Consider 3 molecules from paper PMC2174279.

Assay [1] deals with Bee1p (1-165) (S. cerevisiae). Nature of the assay: two-hybrid.
For assay [2], the target named is Bee1p (1-633) (S. cerevisiae). Nature of the assay: two-hybrid.
Another assay addresses Bee1p-HA (S. cerevisiae). Kind of assay: co-IP.

B1: Vrp1p (195-817) (domain or fragment)
chain: HMPSVRPAHRSHQRKSSNISLPSVSAPPLPSASLPTHVSNPPQAPPPPPTPTIGLDSKNIKPTDNAVSPPSSEVPAGGLPFLAEINARRSERGAVEGVSSTKIQTENHKSPSQPPLPSSAPPIPTSHAPPLPPTAPPPPSLPNVTSAPKKATSAPAPPPPPLPAAMSSASTNSVKATPVPPTLAPPLPNTTSVPPNKASSMPAPPPPPPPPPGAFSTSSALSASSIPLAPLPPPPPPSVATSVPSAPPPPPTLTTNKPSASSKQSKISSSSSSSAVTPGGPLPFLAEIQKKRDDRFVVGGDTGYTTQDKQEDVIGSSKDDNVRPSPISPSINPPKQSSQNGMSFLDEIESKLHKQTSSNAFNAPPPHTDAMAPPLPPSAPPPPITSLPTPTASGDDHTNDKSETVLGMKKAKAPALPGHVPPPPVPPVLSDDSKNNVPAASLLHDVLPSSNLEKPPSPPVAAAPPLPTFSAPSLPQQSVSTSIPSPPPVAPTLSVRTETESISKNPTKSPPPPPSPSTMDTGTSNSPSKNLKQRLFSTGGSTLQHKHNTHTNQPDVDVGRYTIGGSNSIVGAKSGNERIVIDDSRFKWTNVSQMPKPRPFQNKTKLYPSGKGSSVPLDLTLFT
As for B1, the LacZ expression (two-hybrid) in assay [1] and in assay [2] was 144 Miller units throughout.

B2: Myo5p-SH3-AD (1020-1219) (domain or fragment)
chain: NKAATRRSVPNPASTLTASQSNARPSPPTAATRATPAATPAAAAMGSGRQANIPPPPPPPPPSSKPKEPMFEAAYDFPGSGSPSELPLKKGDVIYITREEPSGWSLGKLLDGSKEGWVPTAYMKPHSGNNNIPTPPQNRDVPKPVLNSVQHDNTSANVIPAAAQASLGDGLANALAARANKMRLESDDEEANEDEEEDDW
B2: the LacZ expression (two-hybrid) in assay [2] was 398 Miller units.

B3: Vrp1p-Myc (natural protein)
chain: MAGAPAPPPPPPPPALGGSAPKPAKSVMQGRDALLGDIRKGMKLKKAETNDRSAPIVGGGVVSSASGSSGTVSSKGPSMSAPPIPGMGAPQLGDILAGGIPKLKHINNNASTKPSPSASAPPIPGAVPSVAAPPIPNAPLSPAPAVPSIPSSSAPPIPDIPSSAAPPIPIVPSSPAPPLPLSGASAPKVPQNRPHMPSVRPAHRSHQRKSSNISLPSVSAPPLPSASLPTHVSNPPQAPPPPPTPTIGLDSKNIKPTDNAVSPPSSEVPAGGLPFLAEINARRSERGAVEGVSSTKIQTENHKSPSQPPLPSSAPPIPTSHAPPLPPTAPPPPSLPNVTSAPKKATSAPAPPPPPLPAAMSSASTNSVKATPVPPTLAPPLPNTTSVPPNKASSMPAPPPPPPPPPGAFSTSSALSASSIPLAPLPPPPPPSVATSVPSAPPPPPTLTTNKPSASSKQSKISSSSSSSAVTPGGPLPFLAEIQKKRDDRFVVGGDTGYTTQDKQEDVIGSSKDDNVRPSPISPSINPPKQSSQNGMSFLDEIESKLHKQTSSNAFNAPPPHTDAMAPPLPPSAPPPPITSLPTPTASGDDHTNDKSETVLGMKKAKAPALPGHVPPPPVPPVLSDDSKNNVPAASLLHDVLPSSNLEKPPSPPVAAAPPLPTFSAPSLPQQSVSTSIPSPPPVAPTLSVRTETESISKNPTKSPPPPPSPSTMDTGTSNSPSKNLKQRLFSTGGSTLQHKHNTHTNQPDVDVGRYTIGGSNSIVGAKSGNERIVIDDSRFKWTNVSQMPKPRPFQNKTKLYPSGKGSSVPLDLTLFT
For the molecule B3, the percent coimmunoprecipitated with Bee1p-HA (S. cerevisiae) came to 5%.
